Experiments:
[1] = target: HIV-1 Env of isolate MGRM-AE-006 (subtype AE) (HIV-1); assay: cell-based or functional assay
[2] = target: HIV-1 Env of isolate 92RW008 (HIV-1); assay: cell-based or functional assay
[3] = target: HIV-1 Env of isolate MGRM-AG-008 (subtype AG) (HIV-1); assay: cell-based or functional assay
[4] = target: JR-FL gp120 ΔV1/ΔV2 (HIV-1); assay: ELISA, antigen-coated wells
[5] = target: HIV-1 Env of pseudovirus MGRM-F1-013 (HIV-1); assay: cell-based or functional assay
[6] = target: HIV-1 envelope glycoprotein (Env) of isolate MGRM-A-002, clade A (HIV-1); assay: cell-based or functional assay
[7] = target: HIV-1 APV-17 envelope glycoprotein (Env) on pseudovirus (HIV-1); assay: cell-based or functional assay
[8] = target: HIV-1 92TH021 envelope glycoprotein (Env) on pseudovirus (HIV-1); assay: cell-based or functional assay
[9] = target: HIV-1 Env of pseudovirus MGRM-AG-012 (clade CRF_AG) (HIV-1); assay: cell-based or functional assay
[10] = target: HIV-1 IAVI-C22 envelope glycoprotein (Env) on pseudovirus (HIV-1); assay: cell-based or functional assay
[11] = target: HIV-1 Env of pseudovirus 92TH021 (clade CRF01_AE) (HIV-1); assay: cell-based or functional assay
[12] = target: HIV-1 94UG103 Env on pseudotyped virus (HIV-1 isolate 94UG103); assay: cell-based or functional assay
[13] = target: HIV-1 NL43 Env on pseudotyped virus (HIV-1 NL43); assay: cell-based or functional assay
[14] = target: HIV-1 JR-CSF Env on pseudotyped virus (HIV-1 isolate JR-CSF) (UniProt P20871); assay: cell-based or functional assay
[15] = target: HIV-1 93IN905 Env on pseudotyped virus (HIV-1 isolate 93IN905); assay: cell-based or functional assay
[16] = target: HIV-1 92TH021 Env on pseudotyped virus (HIV-1 isolate 92TH021); assay: cell-based or functional assay
[17] = target: HIV-1 Env of isolate 92UG001 (pseudovirus) (HIV-1); assay: cell-based or functional assay

5329_C19 (PGT-136) (antibody), sequence (VH): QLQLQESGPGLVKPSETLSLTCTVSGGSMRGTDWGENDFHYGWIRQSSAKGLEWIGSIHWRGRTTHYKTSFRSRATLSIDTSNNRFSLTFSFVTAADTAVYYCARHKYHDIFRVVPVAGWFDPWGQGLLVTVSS
5329_C19 (PGT-136) (antibody), sequence (VL): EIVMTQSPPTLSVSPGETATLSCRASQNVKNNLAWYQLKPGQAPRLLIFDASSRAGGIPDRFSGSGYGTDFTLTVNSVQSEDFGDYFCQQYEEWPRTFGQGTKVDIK
5345_I01 (PGT-137) (antibody), sequence (VH): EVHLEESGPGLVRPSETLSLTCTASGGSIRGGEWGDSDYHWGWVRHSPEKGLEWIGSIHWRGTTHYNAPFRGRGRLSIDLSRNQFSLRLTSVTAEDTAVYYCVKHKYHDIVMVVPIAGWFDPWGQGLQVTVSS
5345_I01 (PGT-137) (antibody), sequence (VL): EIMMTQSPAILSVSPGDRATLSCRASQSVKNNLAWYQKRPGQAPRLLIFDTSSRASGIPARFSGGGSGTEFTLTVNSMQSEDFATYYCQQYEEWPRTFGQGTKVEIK

| Substance | IC50 (µg/mL), pseudovirus neutralization [1] [µg/mL] | IC50 [2] [µg/mL] | IC50 (µg/mL), pseudovirus neutralization [3] [µg/mL] | EC50 [4] [µg/mL] | IC50 (µg/ml), pseudovirus neutralization [5] [µg/mL] | IC50 (µg/ml), pseudovirus neutralization [6] [µg/mL] | IC50, pseudovirus neutralization [7] [µg/mL] | IC50, pseudovirus neutralization [8] [µg/mL] | IC50 [9] [µg/mL] | IC50, pseudovirus neutralization [10] [µg/mL] | also measured |
| --- | --- | --- | --- | --- | --- | --- | --- | --- | --- | --- | --- |
| 5329_C19 (PGT-136) (antibody) | > 50 | > 50 | > 50 | 0.3 |  |  |  |  |  |  |  |
| b12 (antibody) |  |  |  |  | > 50 | > 50 | > 25 | 9.99 | 10.4 | 3.6 |  |
| 5345_I01 (PGT-137) (antibody) | > 50 | 0.148 | > 50 | 0.2 |  |  |  |  |  |  |  |
| 2F5 (antibody) |  |  |  |  | 4.57 | > 50 | 2 | 1.51 | 0.33 | > 50 |  |
| 5343_B08 (PGT-135) (antibody) | > 50 | 1.42 | > 50 | 0.1 |  |  |  |  |  |  |  |
| 4E10 (antibody) |  |  |  |  |  | 6.45 | 5.1 | 1.9 | 0.86 | 1.02 | IC50 [11]: 1.17 µg/mL |
| 1495_C14 (PGC14) (antibody) |  |  |  |  | 6 | > 50 | > 50 | > 50 | > 50 | 9.5 | Neutralizing Antibody Assay: IC50; Virus/Ab Incubation 1 hour [12]: > 50 µg/mL; Neutralizing Antibody Assay: IC50; Virus/Ab Incubation 18 hour [12]: > 50 µg/mL; IC50 [11]: > 50 µg/mL; Neutralizing Antibody Assay: IC50; Virus/Ab Incubation 1 hour [13]: 0.35 µg/mL; Neutralizing Antibody Assay: IC50; Virus/Ab Incubation 18 hour [13]: 0.15 µg/mL; Neutralizing Antibody Assay: IC50; Virus/Ab Incubation 1 hour [14]: > 50 µg/mL; Neutralizing Antibody Assay: IC50; Virus/Ab Incubation 18 hour [14]: > 50 µg/mL; Neutralizing Antibody Assay: IC50; Virus/Ab Incubation 1 hour [15]: > 50 µg/mL; Neutralizing Antibody Assay: IC50; Virus/Ab Incubation 18 hour [15]: 0.146 µg/mL; Neutralizing Antibody Assay: IC50; Virus/Ab Incubation 1 hour [16]: > 50 µg/mL; Neutralizing Antibody Assay: IC50; Virus/Ab Incubation 18 hour [16]: > 50 µg/mL |
| 4838_L06 (PGT-121) (antibody) |  |  |  | 0.2 |  |  |  |  |  |  | IC50, pseudovirus neutralization [17]: > 50 µg/mL |

— US20250320281A1
